These results are taken from PMC7959165 (Molecular cell, 2020).

The assay deals with E. coli RNAP σ^70 (E. coli, UniProt P00579 1-613).
Sequence of E. coli RNAP σ^70 (P00579 whole entry): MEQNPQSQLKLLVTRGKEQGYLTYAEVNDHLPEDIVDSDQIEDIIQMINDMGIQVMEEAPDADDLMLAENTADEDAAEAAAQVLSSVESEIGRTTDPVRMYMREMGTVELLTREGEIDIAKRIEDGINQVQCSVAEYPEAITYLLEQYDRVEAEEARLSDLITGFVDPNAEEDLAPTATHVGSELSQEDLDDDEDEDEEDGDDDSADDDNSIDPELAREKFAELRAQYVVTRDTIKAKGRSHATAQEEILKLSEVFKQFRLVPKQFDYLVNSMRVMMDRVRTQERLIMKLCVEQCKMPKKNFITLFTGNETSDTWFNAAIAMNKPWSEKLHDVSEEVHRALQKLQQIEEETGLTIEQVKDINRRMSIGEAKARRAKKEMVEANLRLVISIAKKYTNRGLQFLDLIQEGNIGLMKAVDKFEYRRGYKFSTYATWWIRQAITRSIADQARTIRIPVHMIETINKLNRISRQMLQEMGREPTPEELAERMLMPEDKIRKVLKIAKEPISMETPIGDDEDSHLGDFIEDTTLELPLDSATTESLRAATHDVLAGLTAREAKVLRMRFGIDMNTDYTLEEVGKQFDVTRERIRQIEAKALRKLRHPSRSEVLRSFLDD

B1: E. coli stringent starvation protein A (EcSspA) (natural protein, UniProt P0ACA3 1-212, looked up)
chain: MAVAANKRSVMTLFSGPTDIYSHQVRIVLAEKGVSFEIEHVEKDNPPQDLIDLNPNQSVPTLVDRELTLWESRIIMEYLDERFPHPPLMPVYPVARGESRLYMHRIEKDWYTLMNTIINGSASEADAARKQLREELLAIAPVFGQKPYFLSDEFSLVDCYLAPLLWRLPQLGIEFSGPGAKELKGYMTRVFERDSFLASLTEAEREMRLGRS
As for B1, the binding result is reported as “binds”.
